According to the supplement of paper PMC11246515:
± gives the standard deviation of the averaged measurements.

Assay: total protein half-life in vivo (active degradation + dilution); higher = more stable protein
[1] = E. coli NCM3722 delta-clpP, growth: N-lim chemostat, doubling time 6 h
[2] = E. coli NCM3722 delta-hslV, growth: N-lim chemostat, doubling time 6 h
[3] = E. coli NCM3722 delta-lon, growth: N-lim chemostat, doubling time 6 h
[4] = E. coli NCM3722 delta-smpB, growth: N-lim chemostat, doubling time 6 h
[5] = wild type E. coli NCM3722, growth: C-lim chemostat, doubling time 6 h
[6] = wild type E. coli NCM3722, growth: C-lim chemostat, doubling time 12 h
[7] = wild type E. coli NCM3722, growth: N-lim chemostat, doubling time 6 h
[8] = wild type E. coli NCM3722, growth: N-lim chemostat, doubling time 12 h
[9] = wild type E. coli NCM3722, growth: P-lim chemostat, doubling time 6 h
[10] = wild type E. coli NCM3722, growth: P-lim chemostat, doubling time 12 h
[11] = E. coli NCM3722 delta-clpP delta-lon delta-hslV, growth: N-lim chemostat, doubling time 6 h
[12] = wild type E. coli NCM3722, growth: C-lim chemostat, doubling time 3 h

## MFVEHNLIKNIKIFTLAFTLTVVLIQLSRFISPLAIIHSSYIFLAWMPLCVMLSILFIFGWRGVVPVLCGMFCTNLWNFHLSFLQTAVMLGSQTFVVLCACAILRWQLGTRWRYGLTSRYVWQRLFWLGLVTPIGIKCSMYLVGSFFDFPLKISTFFGDADAIFTVVDLLSLFTAVLIYNMLFYYLTRMIVSPHFAQILWRRDIAPSLGKEKRAFTLSWLAALSVLLLLLCTPYENDFIAGYLVPVFFIIFTLGVGKLRYPFLNLTWAVSTLCLLNYNQNFLQGVETEYSLAFILAVLISFSVCLLYMVRIYHRSEWLNRRWHLQALTDPLTLLPNFRALEQAPEQEAGKSFCCLRIDNLEFMSRHYGLMMRVHCIRSICRTLLPLMQENEKLYQLPGSELLLVLSGPETEGRLQHMVNILNSRQIHWNNTGLDMGYGAAWGRFDGNQETLQPLLGQLSWLAEQSCAHHHVLALDSREEMVSGQTTKQVLLLNTIRTALDQGDLLLYAQPIRNKEGEGYDEILARLKYDGGIMTPDKFLPLIAQFNLSARFDLQVLESLLKWLATHPCDKKGPRFSVNLMPLTLLQKNIAGRIIRLFKRYHISPQAVILEITEEQAFSNAESSMYNIEQLHKFGFRIAIDDFGTGYANYERLKRLQADIIKIDGVFVKDIVTNTLDAMIVRSITDLAKAKSLSVVAEFVETQQQQALLHKLGVQYLQGYLIGRPQPLAD
[1]
  total protein half-life in vivo: 6.53 ± 0.1 h
[2]
  total protein half-life in vivo: 5.86 ± 0.58 h
[3]
  total protein half-life in vivo: 6.27 ± 0.65 h
[4]
  total protein half-life in vivo: 5.72 ± 0.47 h
[5]
  total protein half-life in vivo: 5.29 ± 1.1 h
[6]
  total protein half-life in vivo: 13.6 ± 0.27 h
[7]
  total protein half-life in vivo: 6.08 ± 0.22 h
[8]
  total protein half-life in vivo: 12.2 ± 1.5 h
[9]
  total protein half-life in vivo: 6.1 ± 0.44 h
[10]
  total protein half-life in vivo: 13.8 ± 0.87 h

## MFYPDPFDVIIIGGGHAGTEAAMAAARMGQQTLLLTHNIDTLGQMSCNPAIGGIGKGHLVKEVDALGGLMAKAIDQAGIQFRILNASKGPAVRATRAQADRVLYRQAVRTALENQPNLMIFQQAVEDLIVENDRVVGAVTQMGLKFRAKAVVLTVGTFLDGKIHIGLDNYSGGRAGDPPSIPLSRRLRELPLRVGRLKTGTPPRIDARTIDFSVLAQQHGDNPMPVFSFMGNASQHPQQVPCYITHTNEKTHDVIRSNLDRSPMYAGVIEGVGPRYCPSIEDKVMRFADRNQHQIFLEPEGLTSNEIYPNGISTSLPFDVQMQIVRSMQGMENAKIVRPGYAIEYDFFDPRDLKPTLESKFIQGLFFAGQINGTTGYEEAAAQGLLAGLNAARLSADKEGWAPARSQAYLGVLVDDLCTLGTKEPYRMFTSRAEYRLMLREDNADLRLTEIGRELGLVDDERWARFNEKLENIERERQRLKSTWVTPSAEAAAEVNAHLTAPLSREASGEDLLRRPEMTYEKLTTLTPFAPALTDEQAAEQVEIQVKYEGYIARQQDEIEKQLRNENTLLPATLDYRQVSGLSNEVIAKLNDHKPASIGQASRISGVTPAAISILLVWLKKQGMLRRSA [P0A6U3]
[11]
  total protein half-life in vivo: 5.157 ± 0.0054 h
[1]
  total protein half-life in vivo: 4.25 ± 0.18 h
[2]
  total protein half-life in vivo: 1.64 ± 0.088 h
[3]
  total protein half-life in vivo: 1.831 ± 0.014 h
[4]
  total protein half-life in vivo: 1.73 ± 0.065 h
[12]
  total protein half-life in vivo: 1.42 ± 0.081 h
[5]
  total protein half-life in vivo: 2.35 ± 0.068 h
[6]
  total protein half-life in vivo: 3.19 ± 1.2 h
[7]
  total protein half-life in vivo: 1.71 ± 0.14 h
[8]
  total protein half-life in vivo: 2.48 ± 0.15 h
[9]
  total protein half-life in vivo: 1.9 ± 0.13 h
[10]
  total protein half-life in vivo: 3.12 ± 0.84 h

## MGAELVKWVKSHKIDAHIITFVAKMPYIDSIKLLEAGAKGCVWKTSHPAKLNRAIDSISNGYTYFDSVHMDCEKISSRYSSDNQLTNRESEILQLIADGKTNKEIANFLQLSRKTVETHRLNIMKKLDVHSGIELIKTALRMGVCTI
[11]
  total protein half-life in vivo: 5.42 h
[3]
  total protein half-life in vivo: 5.01 h
[4]
  total protein half-life in vivo: 5.08 ± 0.25 h
[12]
  total protein half-life in vivo: 2.7 h
[5]
  total protein half-life in vivo: 4.55 ± 1.5 h
[6]
  total protein half-life in vivo: 8.41 ± 2.9 h
[7]
  total protein half-life in vivo: 5.22 ± 0.2 h

## MGDIMRPIPFEELLTRIFDEYQQQRSIFGIPEQQFYSPVKGKTVSVFGETCATPVGPAAGPHTQLAQNIVTSWLTGGRFIELKTVQILDRLELEKPCIDAEDECFNTEWSTEFTLLKAWDEYLKAWFALHLLEAMFQPSDSGKSFIFNMSVGYNLEGIKQPPMQQFIDNMMDASDHPKFAQYRDTLNKLLQDDAFLARHGLQEKRESLQALPARIPTSMVHGVTLSTMHGCPPHEIEAICRYMLEEKGLNTFVKLNPTLLGYARVREILDVCGFGYIGLKEESFDHDLKLTQALEMLERLMALAKEKSLGFGVKLTNTLGTINNKGALPGEEMYMSGRALFPLSINVAAVLSRAFDGKLPISYSGGASQLTIRDIFDTGIRPITMATDLLKPGGYLRLSACMRELEGSDAWGLDHVDVERLNRLAADALTMEYTQKHWKPEERIEVAEDLPLTDCYVAPCVTACAIKQDIPEYIRLLGEHRYADALELIYQRNALPAITGHICDHQCQYNCTRLDYDSALNIRELKKVALEKGWDEYKQRWHKPAGSGSRHPVAVIGAGPAGLAAGYFLARAGHPVTLFEREANAGGVVKNIIPQFRIPAELIQHDIDFVAAHGVKFEYGCSPDLTIEQLKNQGFHYVLIATGTDKNSGVKLAGDNQNVWKSLPFLREYNKGTALKLGKHVVVVGAGNTAMDCARAALRVPGVEKATIVYRRSLQEMPAWREEYEEALHDGVEFRFLNNPERFDADGTLTLRVMSLGEPDEKGRRRPVETNETVTLLVDSLITAIGEQQDTEALNAMGVPLDKNGWPDVDHNGETRLTDVFMIGDVQRGPSSIVAAVGTARRATDAILSRENIRSHQNDKYWNNVNPAEIYQRKGDISITLVNSDDRDAFVAQEAARCLECNYVCSKCVDVCPNRANVSIAVPGFQNRFQTLHLDAYCNECGNCAQFCPWNGKPYKDKITVFSLAQDFDNSSNPGFLVEDCRVRVRLNNQSWVLNIDSKGQFNNVPPELNDMCRIISHVHQHHHYLLGRVEV
[11]
  total protein half-life in vivo: 6.26 ± 1.4 h
[1]
  total protein half-life in vivo: 5.57 h
[2]
  total protein half-life in vivo: 5.57 h
[3]
  total protein half-life in vivo: 6.62 h
[12]
  total protein half-life in vivo: 2.86 ± 0.32 h
[5]
  total protein half-life in vivo: 6.06 h
[7]
  total protein half-life in vivo: 6.49 h

## MGFKCGIVGLPNVGKSTLFNALTKAGIEAANFPFCTIEPNTGVVPMPDPRLDQLAEIVKPQRTLPTTMEFVDIAGLVKGASKGEGLGNQFLTNIRETEAIGHVVRCFENDNIIHVSGKVNPADDIEVINTELALADLDTCERAIHRVQKKAKGGDKDAKAELAVLEKCLPQLENAGMLRALDLSAEEKAAIRYLSFLTLKPTMYIANVNEDGFENNPYLDQVREIAAKEGSVVVPVCAAVEADIAELDDEERDEFMQELGLEEPGLNRVIRAGYKLLNLQTYFTAGVKEVRAWTIPVGATAPQAAGKIHTDFEKGFIRAQTISFEDFITYKGEQGAKEAGKMRAEGKDYIVKDGDVMNFLFNV [P0ABU2]
[11]
  total protein half-life in vivo: 3.92 ± 0.14 h
[1]
  total protein half-life in vivo: 3.74 ± 0.63 h
[2]
  total protein half-life in vivo: 3.66 ± 0.24 h
[3]
  total protein half-life in vivo: 4.72 ± 0.67 h
[4]
  total protein half-life in vivo: 3.69 ± 0.13 h
[12]
  total protein half-life in vivo: 3.61 ± 0.17 h
[5]
  total protein half-life in vivo: 4.77 ± 0.28 h
[6]
  total protein half-life in vivo: 9.13 ± 0.49 h
[7]
  total protein half-life in vivo: 3.5 ± 0.18 h
[8]
  total protein half-life in vivo: 5.15 ± 0.31 h
[9]
  total protein half-life in vivo: 5.12 ± 0.4 h
[10]
  total protein half-life in vivo: 9.68 ± 0.37 h

## MGFLSGKRILVTGVASKLSIAYGIAQAMHREGAELAFTYQNDKLKGRVEEFAAQLGSDIVLQCDVAEDASIDTMFAELGKVWPKFDGFVHSIGFAPGDQLDGDYVNAVTREGFKIAHDISSYSFVAMAKACRSMLNPGSALLTLSYLGAERAIPNYNVMGLAKASLEANVRYMANAMGPEGVRVNAISAGPIRTLAASGIKDFRKMLAHCEAVTPIRRTVTIEDVGNSAAFLCSDLSAGISGEVVHVDGGFSIAAMNELELK [P0AEK4]
[11]
  total protein half-life in vivo: 5.4 ± 0.09 h
[1]
  total protein half-life in vivo: 5.37 ± 0.42 h
[2]
  total protein half-life in vivo: 5.299 ± 0.046 h
[3]
  total protein half-life in vivo: 5.88 ± 0.25 h
[4]
  total protein half-life in vivo: 4.97 ± 0.28 h
[12]
  total protein half-life in vivo: 3.26 ± 0.14 h
[5]
  total protein half-life in vivo: 5.9 ± 1.1 h
[6]
  total protein half-life in vivo: 11 ± 1.2 h
[7]
  total protein half-life in vivo: 5.28 ± 0.18 h
[8]
  total protein half-life in vivo: 10.2 ± 2 h
[9]
  total protein half-life in vivo: 6.19 ± 0.08 h
[10]
  total protein half-life in vivo: 13.74 ± 0.13 h

## MGHKPLYRQIADRIREQIARGELKPGDALPTESALQTEFGVSRVTVRQALRQLVEQQILESIQGSGTYVKEERVNYDIFQLTSFDEKLSDRHVDTHSEVLIFEVIPADDFLQQQLQITPQDRVWHVKRVRYRKQKPMALEETWMPLALFPDLTWQVMENSKYHFIEEVKKMVIDRSEQEIIPLMPTEEMSRLLNISQTKPILEKVSRGYLVDGRVFEYSRNAFNTDDYKFTLIAQRKSSR
[11]
  total protein half-life in vivo: 5.56 ± 0.42 h
[1]
  total protein half-life in vivo: 5.47 ± 0.059 h
[2]
  total protein half-life in vivo: 5.26 ± 0.32 h
[3]
  total protein half-life in vivo: 4.83 ± 0.42 h
[4]
  total protein half-life in vivo: 4.99 ± 0.07 h
[12]
  total protein half-life in vivo: 2.985 ± 0.0092 h
[7]
  total protein half-life in vivo: 5.354 ± 0.041 h
[8]
  total protein half-life in vivo: 9.53 ± 0.028 h
[9]
  total protein half-life in vivo: 5.8 ± 0.12 h
[10]
  total protein half-life in vivo: 12.1 ± 1.1 h

## MGIFKAKNPCTKNTIFTTSNTLIYGGFMISLNDFYEQICRKRRDLAYHMSECEWAVDTDVLEEDHPEIRIELGRMREQFWSSEKIGTRVRLYSCDVPWETRHHTVNGQLEIKEEYTELYDPAQECWKNLSSNLTKETFLPLVIEPFSINDIFKAHLMFASISFFWGKSIMSENENVAFKAFHRAAELFDKCIGMTWFNISVCNQKKLSEVRRSAGKKGGKSKAEVYHIIQLKLVELINDSVPNDGWKNKVVAVNELIEPLWDFIQMSEFEINNQNKKYRVATMSQDALVDTILNQWSLKNEDVKQAFDSAVRRKKRSK
[11]
  total protein half-life in vivo: 5.49 ± 0.65 h

## MGIIAQNKISSLGMLFGAIALMMGIIHFSFGPFSAPPPTFESIVADKTAEIKRGLLAGIKGEKITTVEKKEDVDVDKILNQSGIALAIAALLCAFIGGMRKENRWGIRGALVFGGGTLAFHTLLFGIGIVCSILLIFLIFSFLTGGSLV
[7]
  total protein half-life in vivo: 5.09 h
